Data on two proteins can be found in patent publication US20090269831A1 (REGENTS OF THE UNIVERSITY OF MINNESOTA, published 2009).

Data set [1] deals with the molecule itself. Briefly: size exclusion, Superdex 75 (self-association). The protocol: GST-based constructs were expressed in E. coli strain BL21 DE3 RIL (Stratagene). Unlabeled proteins were produced by overnight expression at 17° C. in LB medium containing 1 mM IPTG and 200 μg/mL ampicillin. Isotope-labeled proteins were produced by overnight expression at 17° C. in M9 supplemented with ¹⁵NH₄Cl, ¹³C-labeled D-glucose and ²H water as previously described by Devany et al., Protein Sci. 13, 2252-259 (2004). Proteins were purified by sonicating cell pellets in lysis buffer [100 mM NaCl, 50 mM Na₂HPO₄/NaH₂PO₄ (pH7.0), protease inhibitor (Roche)], separating the soluble (supernatant) and insoluble (pellet) fractions by centrifugation (12,110 g, 20 min, 4° C.), binding to glutathione sepharose (GE healthcare), washing with lysis buffer and eluting with PreScission protease (GE Healthcare) in 1 mM DTT, 50 mM Na₂HPO₄/NaH₂PO₄ [pH7.4] and, finally, concentrating with Centricon filters (Millipore). Solubility was monitored by SDS PAGE, coomassie blue staining and/or immunoblotting as discussed above. […] GST and lysozyme were purchased from Sigma.
A general note: Size exclusion chromatography separates by hydrodynamic size, large species first.

Data set [2] deals with the molecule itself. In words: sedimentation velocity analytical ultracentrifugation (self-association). On the procedure: Sedimentation Velocity Analytical Ultracentrifugation Experiments. A3G-2K3A was diluted to 0.15, 0.4, 0.8 or 1.2 mg/ml in a buffer containing 50 mM Na₂HPO₄/NaH₂PO₄ [pH7.4], 0.005% tween 20, 5 mM dithiothreitol and 50 μM ZnCl₂. Samples were then sedimented using a 4-hole rotor at 20° C. and 55,000 rpm. The rotor and cells were preequilibrated at 20° C. and the samples were kept on ice during protein preparation and dilution. Synthetic boundary cells were loaded with 430 μL of buffer and 420 μL of the appropriate sample solution. The cells were placed in the rotor and accelerated to 24,000 rpm while monitoring the transfer of the excess buffer in each cell. Subsequently, the rotor was stopped and then gently inverted to thoroughly mix the contents of the cells. The rotor was then equilibrated under vacuum at 20° C. and after a period of ˜1 hour at 20° C. the rotor was accelerated to 55,000 rpm. Interference scans were acquired at 1 minute intervals for 6 hours. The data for each loading concentration was analyzed using the program DcDt+ (version 2.0.7). See Philo, Anal. Biochem. 354, 238-246 (2006); and Philo, Anal. Biochem. 279, 151-163 (2000). The complete data set for A3G-2K3A was analyzed using Sedphat v4.4b using the model of a hybrid local continuous distribution and global discrete species. Schuck, Anal. Biochem. 320, 104-124 (2003). […]

Changes are numbered by the printed parent chain. Numbers in names are those of the source.

B1: A3G198-384 (enzyme)
chain: DPPTFTFNFNNEPWVRGRHETYLCYEVERMHNDTWVLLNQRRGFLCNQAPHKHGFLEGRHAELCFLDVIPFWKLDLDQDYRVTCFTSWSPCFSCAQEMAKFISKNKHVSLCIFTARIYDDQGRCQEGLRTLAEAGAKISIMTYSEFKHCWDTFVDHQGCPFQPWDGLDEHSQDLSGRLRAILQNQEN
notes: also called CTD
Turning to B1, the binding result in data set [1] is listed as “no binding (tested: 1 mg (approx. 1 mL))”.

B2: A3G-2K3A (enzyme)
chain: B1 chain with L37K, C46A, F113K, C124A, C159A
notes: released from the GST fusion with PreScission protease
For the protein B2, in data set [2], the binding result is on record as “no binding (tested: 0.15, 0.4, 0.8 or 1.2 mg/ml)”.
